Assay results taken from IntAct's records for PubMed 23290633.

B1: Magnesium transporter NIPA4 (Homo sapiens), Q0D2K0 (parent)
chain: MELRVSNTSCENGSLLHLYCSSQEVLCQIVNDLSPEVPSNATFHSWQERIRQNYGFYIGLGLAFLSSFLIGSSVILKKKGLLRLVATGATRAVDGGFGYLKDAMWWAGFLTMAAGEVANFGAYAFAPATVVTPLGALSVLISAILSSYFLRESLNLLGKLGCVICVAGSTVMVIHAPEEEKVTTIMEMASKMKDTGFIVFAVLLLVSCLILIFVIAPRYGQRNILIYIIICSVIGAFSVAAVKGLGITIKNFFQGLPVVRHPLPYILSLILALSLSTQVNFLNRALDIFNTSLVFPIYYVFFTTVVVTSSIILFKEWYSMSAVDIAGTLSGFVTIILGVFMLHAFKDLDISCASLPHMHKNPPPSPAPEPTVIRLEDKNVLVDNIELASTSSPEEKPKVFIIHS

Variants of: B1
Details: with SLC27A4, Q6P1M0
Sequence of SLC27A4, Q6P1M0 (Q6P1M0 whole entry, looked up): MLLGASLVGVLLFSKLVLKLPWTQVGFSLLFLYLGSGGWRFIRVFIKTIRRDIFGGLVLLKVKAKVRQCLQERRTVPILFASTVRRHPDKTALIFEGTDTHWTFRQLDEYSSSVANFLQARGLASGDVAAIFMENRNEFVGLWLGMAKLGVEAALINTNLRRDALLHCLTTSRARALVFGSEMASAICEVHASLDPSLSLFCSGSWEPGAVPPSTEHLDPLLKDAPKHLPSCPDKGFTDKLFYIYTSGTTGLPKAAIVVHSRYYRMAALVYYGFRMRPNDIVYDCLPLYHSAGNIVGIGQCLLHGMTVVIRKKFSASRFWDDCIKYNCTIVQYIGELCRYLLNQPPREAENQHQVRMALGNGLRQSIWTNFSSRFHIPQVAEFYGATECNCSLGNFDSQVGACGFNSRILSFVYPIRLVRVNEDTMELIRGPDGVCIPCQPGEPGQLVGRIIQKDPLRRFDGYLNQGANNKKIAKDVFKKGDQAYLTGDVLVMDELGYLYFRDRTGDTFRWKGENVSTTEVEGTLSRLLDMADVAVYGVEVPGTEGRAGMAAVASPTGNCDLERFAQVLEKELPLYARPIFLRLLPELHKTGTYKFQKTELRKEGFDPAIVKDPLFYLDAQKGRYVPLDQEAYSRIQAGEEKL

Row | Variant | effect of a mutation on the interaction
1 | MELRVSNTSCENGSLLHLYCSSQEVLCQIVNDLSPEVPSNATFHSWQERIRQNYGFYIGLGLAFLSSFLIGSSVILKKKGLLRLVATGATRAVDGGFGYLKDAMWWAGFLTMADGEVANFGAYAFAPATVVTPLGALSVLISAILSSYFLRESLNLLGKLGCVICVAGSTVMVIHAPEEEKVTTIMEMASKMKDTGFIVFAVLLLVSCLILIFVIAPRYGQRNILIYIIICSVIGAFSVAAVKGLGITIKNFFQGLPVVRHPLPYILSLILALSLSTQVNFLNRALDIFNTSLVFPIYYVFFTTVVVTSSIILFKEWYSMSAVDIAGTLSGFVTIILGVFMLHAFKDLDISCASLPHMHKNPPPSPAPEPTVIRLEDKNVLVDNIELASTSSPEEKPKVFIIHS [A114D] | decreasing interaction
